Earlier results on 1 substance are cited in publication PMC4454452.

The target in series [1] is Histone H3 peptide (H3K9me3) (Homo sapiens) (UniProt P68431).
The target of series [2] is Histone H3 peptide (H3K9me0) (Homo sapiens) (UniProt P68431).

Sequence of CHD4 PHD2 (Q14839 449-496): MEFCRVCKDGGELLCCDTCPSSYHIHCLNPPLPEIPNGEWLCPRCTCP

Consider CHD4 PHD2 (from UniProt Q14839), for which the Kd (as a rule, the constant that tells how readily two partners part at equilibrium) in series [1] was 900 nM; in series [2], 19 µM.
